The chains are these.
B1: CPEB3 Ribozyme (parent)
chain: GGGGGCCACAGCAGAAGCGUUCACGUCGCGGCCCCUGUCAGAUUCUGGUGAAUCUGCGAAUUCUGCUGU

This series covers variants of B1. Kind of series: self-cleavage, relative activity (ratio to wild type); higher = more cleavage; co-transcriptional.
For GGGGGGCACAGCAGAUGCGUUCACGUCGCGGCCCCUGUCAGAUUCUGGUGAAUCUGCGAAUUCUGCUGU [C6G A16U], the self-cleavage is 0.151.

As to GGGGGGCACAGCAGACGCGUUCACGUCGCGGCCCCUGUCAGAUUCUGGUGAAUCUGCGAAUUCUGCUGU [C6G A16C], the self-cleavage was 0.0895.

Take GGGGGACACAGCAGAAGCGUUCACGUCGCUGCCCCUGUCAGAUUCUGGUGAAUCUGCGAAUUCUGCUGU [C6A G30U]: the self-cleavage came out at 0.157.

For GGGGGACACAGCAGAAGCGUUCACGUCGCAGCCCCUGUCAGAUUCUGGUGAAUCUGCGAAUUCUGCUGU [C6A G30A], the self-cleavage was 0.338.

Turning to GGGGGACACAGCAGAAGCGUUCACGUCGCGGCCCCUGUCAGAUUCUGGUGAAUCUGCGAAUUCUGCCGU [C6A U67C], the self-cleavage stood at 0.883.

Consider GGGGGACACAGCAGAAGCGUUCACGUCGCGGCCCCUGUCAGAUUCUGGUGAAUCUGCGAAUUCUGCAGU [C6A U67A], for which the self-cleavage was 0.782.

Regarding GGGGGACACAGCAGAAGCGUUCACGUCGCGGCCCCUGUCAGAUUCUGGUGAAUCUGCGAAUUCUGCUGG [C6A U69G], the self-cleavage was 0.838.

Take GGGGGACACAGCAGAAGCGUUCACGUCGCGGCCCCUGUCAGAUUCUGGUGAAUCUGCGAAUUCUGCUGA [C6A U69A]: the self-cleavage turned out to be 0.884.

In the case of GGGGGACACAGCAGAAGCGUUCACGUCGCGGCCCCUGUCAGAUUCUGGUGAAUCUGCGAAUUCUGCUGC [C6A U69C], the self-cleavage turned out to be 1.03.

Consider GGGGGACACAGCAGAAGCGCUCACGUCGCGGCCCCUGUCAGAUUCUGGUGAAUCUGCGAAUUCUGCUGU [C6A U20C], for which the self-cleavage was 0.204.

As to GGGGGACACAGCAGAAGCGAUCACGUCGCGGCCCCUGUCAGAUUCUGGUGAAUCUGCGAAUUCUGCUGU [C6A U20A], the self-cleavage was 0.0587.

GGGGGACACAGCAGAAGCGUUCACGUCGCGGCCCCUGUCAGAUUCUGGUGAAGCUGCGAAUUCUGCUGU [C6A U53G]: the self-cleavage turned out to be 0.195.

Consider GGGGGACACAGCAGAAGCGUUCACGUCGCGGCCCCUGUCAGAUUCUGGUGAAACUGCGAAUUCUGCUGU [C6A U53A], for which the self-cleavage was found to be 0.422.

For GGGGGACACAGCAGAAGCGUUCACGUCGCGGCCCCUGUCAGAUUCUGGUGAACCUGCGAAUUCUGCUGU [C6A U53C], the self-cleavage was determined as 0.335.

For GGGGGACACAGCAGAAGCGUUCACGUCGCGGCCCCUGUCAGAUUCUGGUGAAUCCGCGAAUUCUGCUGU [C6A U55C], the self-cleavage amounted to 0.142.

Turning to GGGGGGCACAGCAGAAGCGUUCACGUCGCGGCCCCUGUCAGAUUCUGGUGAAUCUGCGAAUUCUGCUGU [C6G], the self-cleavage was found to be 0.388.

With GGGGGGCACAGCGGAAGCGUUCACGUCGCGGCCCCUGUCAGAUUCUGGUGAAUCUGCGAAUUCUGCUGU [C6G A13G], the self-cleavage is 0.0914.

In the case of GGGGGACACAGCAGAAGCGUUCACGUCGCGGCCCCCGUCAGAUUCUGGUGAAUCUGCGAAUUCUGCUGU [C6A U36C], the self-cleavage turned out to be 0.247.

As to GGGGGACACAGCAGAAGCGUUCACGUCGCGGCCCCUGUCAAAUUCUGGUGAAUCUGCGAAUUCUGCUGU [C6A G41A], the self-cleavage was 0.241.

As for GGGGGACACAGCAGAAGCGUUCACGUCGCGGCCCCUGUCAGAUACUGGUGAAUCUGCGAAUUCUGCUGU [C6A U44A], the self-cleavage was 0.373.

With GGGGGACACAGCAGAAGCGUUCACGUCGCGGCCCCUGUCAGAUCCUGGUGAAUCUGCGAAUUCUGCUGU [C6A U44C], the self-cleavage was 0.455.

Turning to GGGGGACACAGCAGAAGCGUUCACGUCGCGGCCCCUGUCAGAUGCUGGUGAAUCUGCGAAUUCUGCUGU [C6A U44G], the self-cleavage was 0.416.

Turning to GGGGGACACAGCAGAAGCGUUCACGUCGCGGCCCCUGUCAGAUUCAGGUGAAUCUGCGAAUUCUGCUGU [C6A U46A], the self-cleavage stood at 0.674.

As to GGGGGACACAGCAGAAGCGUUCACGUCGCGGCCCCUGUCAGAUUCCGGUGAAUCUGCGAAUUCUGCUGU [C6A U46C], the self-cleavage was found to be 0.657.

With GGGGGACACAGCAGAAGCGUUCACGUCGCGGCCCCUGUCAGAUUCGGGUGAAUCUGCGAAUUCUGCUGU [C6A U46G], the self-cleavage is 0.607.

Regarding GGGGGACACAGCAGAAGCGUUCACGUCGCGGCCCCUGUCAGAUUCUGCUGAAUCUGCGAAUUCUGCUGU [C6A G48C], the self-cleavage is 0.693.

As to GGGGGACACAGCAGAAGCGUUCACGUCGCGGCCCCUGUCAGAUUCUAGUGAAUCUGCGAAUUCUGCUGU [C6A G47A], the self-cleavage was determined as 0.712.

Consider GGGGGACACAGCAGAAGCGUUCACGUCGCGGCCCCUGUCAGAUUCUUGUGAAUCUGCGAAUUCUGCUGU [C6A G47U], for which the self-cleavage stood at 0.661.

For the variant GGGGGACACAGCAGAAGCGUUCACGUCGCGGCCCCUGUCAGAUUCUCGUGAAUCUGCGAAUUCUGCUGU [C6A G47C], the self-cleavage worked out at 0.689.

For GGGGGACACAGCAGAAGCGUUCACGUCGCGGCCCCUGUCAGAUUCUGGUGAAUCUGCGAAUCCUGCUGU [C6A U62C], the self-cleavage came out at 0.338.

Take GGGGGACACAGCAGAAGCGUUCACGUCGCGGCCCCUAUCAGAUUCUGGUGAAUCUGCGAAUUCUGCUGU [C6A G37A]: the self-cleavage was 0.149.

On to GGGGGACACAGCAGAAGCGUUCACGUCGCGGCCCCUUUCAGAUUCUGGUGAAUCUGCGAAUUCUGCUGU [C6A G37U], for which the self-cleavage came out at 0.142.

As for GGGGGACACAGCAGAAGCGUUCACGUCGCGGCCCCUCUCAGAUUCUGGUGAAUCUGCGAAUUCUGCUGU [C6A G37C], the self-cleavage turned out to be 0.122.

GGGGGGCCCAGCAGAAGCGUUCACGUCGCGGCCCCUGUCAGAUUCUGGUGAAUCUGCGAAUUCUGCUGU [C6G A8C]: the self-cleavage is 0.873.

For the variant GGGGGGCUCAGCAGAAGCGUUCACGUCGCGGCCCCUGUCAGAUUCUGGUGAAUCUGCGAAUUCUGCUGU [C6G A8U], the self-cleavage is 0.149.

With GGGGGACACAGCAUAAGCGUUCACGUCGCGGCCCCUGUCAGAUUCUGGUGAAUCUGCGAAUUCUGCUGU [C6A G14U], the self-cleavage amounted to 0.116.

In the case of GGGGGACACAGCAGAAGCGUUCACGUCGCGUCCCCUGUCAGAUUCUGGUGAAUCUGCGAAUUCUGCUGU [C6A G31U], the self-cleavage was 0.986.

For the variant GGGGGACACAGCAGAAGCGUUCACGUCGCGCCCCCUGUCAGAUUCUGGUGAAUCUGCGAAUUCUGCUGU [C6A G31C], the self-cleavage was 0.762.

On to GGGGGACACAGCAGAAGCGUUCACGUCGCGACCCCUGUCAGAUUCUGGUGAAUCUGCGAAUUCUGCUGU [C6A G31A], for which the self-cleavage is 0.775.

(Values after the RNAGym collection of RNA variant scans (doi:10.7554/elife.80360).)
